B1: glmS ribozyme (parent)
chain: AUAAAAGCGCCAGAACUACAGAAAUGUAGUUGACGAGGAGGAGGUUUAUCGAAUUUUCGGCGGAUGCCUCCAAA

± gives the standard error. For some assays here: Fewer inactive variants are shown than the library holds.

Settings in all cases: with glucosamine-6-phosphate
Variants of B1 are the subject of data set [1]. The data set can be described thus: kcat; higher = faster cleavage; RNA array. The essentials: (§1)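 Over ~14 h at 37 °C, tiles were imaged as glucosamine-6-phosphate (40 μM to 10 mM) in HEPES/KCl/Mg(OAc)2 buffer flowed across sequenced MiSeq chips. The chips carried barcoded ribozyme variants transcribed in situ by E. coli RNA polymerase and tracked with a hybridised Cy3 probe. After normalisation to baseline and to non-cleaving reference variants, one- or two-exponential decay fits of per-tile medians gave kobs. kcat and KM followed from weighted Michaelis–Menten fits across concentrations.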

Data set [2] covers variants of B1. The data set can be described thus: KM; higher = weaker cofactor use; RNA array. The essentials: as §1
In data set [3] the parent is B1. The experiment in a line: self-cleavage kobs at 2500 uM GlcN6P; higher = faster cleavage; RNA array. The essentials: as §1
Variants of B1 are the subject of data set [4]. The data set can be described thus: self-cleavage kobs at 10000 uM GlcN6P; higher = faster cleavage; RNA array. The essentials:
as §1

Variants of B1 are the subject of data set [5]. The experiment in a line: self-cleavage kobs at 640 uM GlcN6P; higher = faster cleavage; RNA array. The essentials:
as §1

The variants in data set [6] derive from B1. The data set can be described thus: self-cleavage kobs at 160 uM GlcN6P; higher = faster cleavage; RNA array. The essentials:
as §1

In data set [7] the parent is B1. The data set can be described thus: self-cleavage kobs at 40 uM GlcN6P; higher = faster cleavage; RNA array. The essentials:
as §1

As to C34U U54C C68G, the kcat in data set [1] turned out to be 1.64e-05 ± 4.9e-06 s⁻¹.

As for U30C A39C, the kcat in data set [1] was determined as 0.000139 ± 1.1e-05 s⁻¹. Besides, the KM in data set [2] came out at 4.21 ± 0.82 mM. Moreover, the “self-cleavage kobs at 2500 uM GlcN6P” value in data set [3] turned out to be 5.33e-05 ± 1e-05 s⁻¹. In data set [4], the “self-cleavage kobs at 10000 uM GlcN6P” value amounted to 9.75e-05 ± 9.4e-06 s⁻¹.

As to G29U U30A, in data set [1], the kcat is 0.000337 ± 3.2e-05 s⁻¹. Further, in data set [2], the KM stood at 1.9 ± 0.38 mM. Further, in data set [5], the “self-cleavage kobs at 640 uM GlcN6P” value stood at 8.73e-05 ± 1.5e-05 s⁻¹. For the same variant, in data set [3], the “self-cleavage kobs at 2500 uM GlcN6P” value came to 0.000198 ± 3.2e-05 s⁻¹. Moreover, the “self-cleavage kobs at 10000 uM GlcN6P” value in data set [4] turned out to be 0.000278 ± 4e-05 s⁻¹.

For G32C A53G, in data set [1], the kcat stood at 0.000158 ± 4.6e-06 s⁻¹. Also, the KM in data set [2] turned out to be 3.34 ± 0.2 mM. In addition, the “self-cleavage kobs at 640 uM GlcN6P” value in data set [5] was found to be 2.67e-05 ± 9.1e-06 s⁻¹. The “self-cleavage kobs at 2500 uM GlcN6P” value in data set [3] is 6.68e-05 ± 8.8e-06 s⁻¹. Also, the “self-cleavage kobs at 10000 uM GlcN6P” value in data set [4] was 0.000119 ± 1.5e-05 s⁻¹.

As to G32U C71U, the kcat in data set [1] is 0.00136 ± 0.0003 s⁻¹. The KM in data set [2] is 5.54 ± 1.7 mM. Further, the “self-cleavage kobs at 160 uM GlcN6P” value in data set [6] stood at 6.14e-05 ± 1.3e-05 s⁻¹. Moreover, the “self-cleavage kobs at 640 uM GlcN6P” value in data set [5] is 0.000146 ± 1.1e-05 s⁻¹. The “self-cleavage kobs at 2500 uM GlcN6P” value in data set [3] was 0.00037 ± 3.3e-05 s⁻¹. For the same variant, the “self-cleavage kobs at 10000 uM GlcN6P” value in data set [4] was 0.000927 ± 7.7e-05 s⁻¹.

In the case of G59A C70U, in data set [1], the kcat came to 0.000157 ± 9e-06 s⁻¹. The KM in data set [2] stood at 1.97 ± 0.32 mM. Besides, the “self-cleavage kobs at 640 uM GlcN6P” value in data set [5] came to 4.24e-05 ± 8e-06 s⁻¹. Besides, the “self-cleavage kobs at 2500 uM GlcN6P” value in data set [3] is 8.29e-05 ± 9.8e-06 s⁻¹. Further, the “self-cleavage kobs at 10000 uM GlcN6P” value in data set [4] amounted to 0.000133 ± 1.1e-05 s⁻¹.

G59A C70G: the kcat in data set [1] was 2.32e-05 ± 4.8e-06 s⁻¹. In data set [5], the “self-cleavage kobs at 640 uM GlcN6P” value is 2.83e-05 ± 1.3e-05 s⁻¹.

Consider G32U C67A, for which the kcat in data set [1] turned out to be 0.000412 ± 4.2e-05 s⁻¹. In addition, in data set [2], the KM is 4.2 ± 0.78 mM. Further, in data set [5], the “self-cleavage kobs at 640 uM GlcN6P” value amounted to 5.83e-05 ± 6.7e-06 s⁻¹. Also, in data set [3], the “self-cleavage kobs at 2500 uM GlcN6P” value worked out at 0.00014 ± 1.6e-05 s⁻¹. For the same variant, the “self-cleavage kobs at 10000 uM GlcN6P” value in data set [4] was determined as 0.000296 ± 2.2e-05 s⁻¹.

Regarding C68A C70G, the kcat in data set [1] is under 1e-05 s⁻¹. Further, the “self-cleavage kobs at 40 uM GlcN6P” value in data set [7] was under 1e-05 s⁻¹. Besides, in data set [4], the “self-cleavage kobs at 10000 uM GlcN6P” value was under 1e-05 s⁻¹.

A6U G32U C50G: the kcat in data set [1] amounted to 6.32e-05 ± 1.6e-05 s⁻¹. Moreover, the “self-cleavage kobs at 160 uM GlcN6P” value in data set [6] worked out at 7.94e-05 ± 1.8e-05 s⁻¹. Further, the “self-cleavage kobs at 2500 uM GlcN6P” value in data set [3] was 6.04e-05 ± 1.5e-05 s⁻¹.

On to U31A A39U, for which the kcat in data set [1] amounted to 0.0125 ± 0.0029 s⁻¹. The KM in data set [2] came to 3.37 ± 1 mM. For the same variant, the “self-cleavage kobs at 40 uM GlcN6P” value in data set [7] is 0.000161 ± 2.9e-05 s⁻¹. For the same variant, in data set [6], the “self-cleavage kobs at 160 uM GlcN6P” value was found to be 0.000508 ± 8.4e-05 s⁻¹. Further, in data set [5], the “self-cleavage kobs at 640 uM GlcN6P” value came out at 0.00196 ± 0.00029 s⁻¹. Also, the “self-cleavage kobs at 2500 uM GlcN6P” value in data set [3] came to 0.00802 ± 0.0015 s⁻¹. Besides, in data set [4], the “self-cleavage kobs at 10000 uM GlcN6P” value came out at 0.00871 ± 0.0014 s⁻¹.

Consider A15C U55G C70A, for which the kcat in data set [1] was 4.71e-05 ± 9.2e-06 s⁻¹. Moreover, the “self-cleavage kobs at 640 uM GlcN6P” value in data set [5] is 5.4e-05 ± 1.4e-05 s⁻¹. Further, in data set [3], the “self-cleavage kobs at 2500 uM GlcN6P” value worked out at 4.46e-05 ± 1.3e-05 s⁻¹. In addition, the “self-cleavage kobs at 10000 uM GlcN6P” value in data set [4] was found to be 3.54e-05 ± 1.7e-05 s⁻¹.

Regarding C50G U56A, in data set [1], the kcat was 3e-05 ± 4.9e-06 s⁻¹. For the same variant, the “self-cleavage kobs at 2500 uM GlcN6P” value in data set [3] worked out at 4.14e-05 ± 1.9e-05 s⁻¹.

U49A C67U: the kcat in data set [1] was under 1e-05 s⁻¹. The “self-cleavage kobs at 40 uM GlcN6P” value in data set [7] is under 1e-05 s⁻¹. Besides, in data set [4], the “self-cleavage kobs at 10000 uM GlcN6P” value was under 1e-05 s⁻¹.

On to U47A U56G, for which the kcat in data set [1] is 0.0204 ± 0.0071 s⁻¹. The KM in data set [2] came to 3 ± 1.3 mM. The “self-cleavage kobs at 40 uM GlcN6P” value in data set [7] amounted to 0.000264 ± 4.1e-05 s⁻¹. In addition, the “self-cleavage kobs at 160 uM GlcN6P” value in data set [6] stood at 0.000981 ± 0.00018 s⁻¹. The “self-cleavage kobs at 640 uM GlcN6P” value in data set [5] worked out at 0.00418 ± 0.00053 s⁻¹. Besides, in data set [3], the “self-cleavage kobs at 2500 uM GlcN6P” value was determined as 0.0064 ± 0.0017 s⁻¹. Also, the “self-cleavage kobs at 10000 uM GlcN6P” value in data set [4] was 0.0194 ± 0.0038 s⁻¹.

Turning to C11U A53C, in data set [1], the kcat stood at 0.000605 ± 0.00015 s⁻¹. Also, in data set [2], the KM is 3.78 ± 1.3 mM. For the same variant, the “self-cleavage kobs at 160 uM GlcN6P” value in data set [6] stood at 3.37e-05 ± 1.3e-05 s⁻¹. In addition, the “self-cleavage kobs at 640 uM GlcN6P” value in data set [5] was 8.09e-05 ± 1e-05 s⁻¹. For the same variant, in data set [3], the “self-cleavage kobs at 2500 uM GlcN6P” value turned out to be 0.000307 ± 4.8e-05 s⁻¹. The “self-cleavage kobs at 10000 uM GlcN6P” value in data set [4] worked out at 0.000412 ± 6.8e-05 s⁻¹.

With U56G A64C, in data set [1], the kcat worked out at 7.21e-05 ± 4.9e-06 s⁻¹. Further, the KM in data set [2] amounted to 1.5 ± 0.42 mM. Also, the “self-cleavage kobs at 160 uM GlcN6P” value in data set [6] was under 1e-05 s⁻¹. Moreover, the “self-cleavage kobs at 640 uM GlcN6P” value in data set [5] amounted to 2.44e-05 ± 1.1e-05 s⁻¹. Also, the “self-cleavage kobs at 2500 uM GlcN6P” value in data set [3] worked out at 3.92e-05 ± 1.5e-05 s⁻¹. Further, in data set [4], the “self-cleavage kobs at 10000 uM GlcN6P” value turned out to be 6.35e-05 ± 8.6e-06 s⁻¹.

In general, kcat refers to the number of substrate molecules converted per active site and unit of time at saturation. The term KM denotes the substrate concentration at which the rate is half of its maximum.
